No end group written: not given here.
Experiments:
[1] = target: T1, 6His-NXF1 1-198 (UniProt Q9UBU9 1-198); experiment: ITC
T1 sequence (looked up): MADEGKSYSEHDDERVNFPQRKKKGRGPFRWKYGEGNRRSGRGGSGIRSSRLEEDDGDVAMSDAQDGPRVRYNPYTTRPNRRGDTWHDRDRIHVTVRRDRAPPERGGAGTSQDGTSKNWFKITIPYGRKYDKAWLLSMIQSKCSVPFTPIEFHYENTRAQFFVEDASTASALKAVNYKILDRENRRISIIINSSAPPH

[2] = target: T2, GST-NXF1:p15 complex (UniProt Q9UBU9 1-619; Q9UKK6 1-140); experiment: pull-down
T2 sequence (looked up) 1: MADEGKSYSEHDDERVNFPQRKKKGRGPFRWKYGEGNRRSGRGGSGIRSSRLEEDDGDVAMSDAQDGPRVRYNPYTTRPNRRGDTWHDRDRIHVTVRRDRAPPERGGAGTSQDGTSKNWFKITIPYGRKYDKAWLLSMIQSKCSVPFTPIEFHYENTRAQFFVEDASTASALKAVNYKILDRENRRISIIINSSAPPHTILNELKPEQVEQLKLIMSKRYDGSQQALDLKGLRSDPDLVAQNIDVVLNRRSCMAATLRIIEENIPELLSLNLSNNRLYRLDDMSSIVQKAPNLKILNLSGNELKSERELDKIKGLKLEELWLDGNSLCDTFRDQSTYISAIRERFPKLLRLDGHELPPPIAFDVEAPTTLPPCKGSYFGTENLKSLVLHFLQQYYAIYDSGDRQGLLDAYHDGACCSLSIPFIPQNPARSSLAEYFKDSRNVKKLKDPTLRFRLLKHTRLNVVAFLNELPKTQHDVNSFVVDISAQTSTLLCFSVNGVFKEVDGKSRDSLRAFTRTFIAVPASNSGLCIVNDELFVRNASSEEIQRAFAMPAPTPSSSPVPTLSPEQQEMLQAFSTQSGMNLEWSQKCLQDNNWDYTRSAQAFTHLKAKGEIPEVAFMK
T2 sequence (looked up) 2: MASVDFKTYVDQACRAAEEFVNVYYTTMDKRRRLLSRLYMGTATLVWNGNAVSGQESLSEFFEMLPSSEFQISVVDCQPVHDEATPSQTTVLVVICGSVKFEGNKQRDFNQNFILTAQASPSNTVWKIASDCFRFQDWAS

For PASGAGTGRGGGGGGGGGAPRGRYGPPSAASE (peptide, UniProt Q07955 89-120, looked up, also: FAM label, position not given here) [SRSF1 aa 89-120 m4-mutant peptide], the “fold reduction of affinity against SRSF1 WT-CPP” value [1] was ~10 fold.

B1: SRSF1 (amino-acids 11-196), 6His-tagged (domain or fragment, UniProt Q07955 11-196, looked up)
chain: AGNNDCRIYVGNLPPDIRTKDIEDVFYKYGAIRDIDLKNRRGGPPFAFVEFEDPRDAEDAVYGRDGYDYDGYRLRVEFPRSGRGTGRGGGGGGGGGAPRGRYGPPSRRSENRVVVSGLPPSGSWQDLKDHMREAGDVCYADVYRDGTGVVEFVRKEDMTYAVRKLDNTKFRSHEGETAYIRVKVDG
B1: binds [2].

PRSGRGTGRGGGGGGGGGAPRGRYGPPSRRSE (peptide, UniProt Q07955 89-120, looked up, also: FAM label, position not given here) [SRSF1 aa 89-120 wild-type peptide]: binds [1].

With PRSGRGTGRGGGGGGGGGAPRGRYGPPSRRSEYGRKKRRQRRR (peptide, UniProt Q07955 89-120, looked up) [SRSF1 WT-CPP (SRSF1 aa89-120, V5 tag, TAT protein transduction domain)] the “fold increase of affinity against the wild-type SRSF1 peptide” value [1] was 5 fold.

— article doi:10.1101/2021.05.23.445325 (bioRxiv, 2021)
